# Source: the nanobody polyreactivity screen of Harvey et al. (2022)
# Assay: yeast display, Sf9 membrane polyspecificity reagent, FACS + sequencing; frameworks hold sequencing errors
# How it was run: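 Nanobodies from a synthetic yeast display library (Saccharomyces cerevisiae BJ5465), induced 36–48 hours with galactose, were stained 1 hour at 4 °C with 10% biotinylated, detergent-solubilized Sf9 membrane reagent, enriched on streptavidin microbeads, then FACS-sorted. Anti-HA (expression) and streptavidin (reagent binding) fluorescence set low and high (top ~1%) gates. Polyreactivity labels come from the gate of origin. Genes were colony-PCR amplified, MiSeq 2 × 250 sequenced and filtered by CDR length.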
row,Sequence,polyreactivity (PSR sort gate)
1,QVQLVESGGGLVQAGGSLRLSCAASGHIFDHYAMGWYRQAPGKERELVAAISTSGTSTYYADSVKGRFTISRDNAKNTVYLQMNSLKPEDTAVYYCNAGGGHVGDVRYPYRYWRYNYWGQGTQVTVSS,low polyreactivity
2,QVQLVESGGGLVQAGGSLRLSCAASVSIFRVYALGWYRQEPGKERELVAAITNGGNTNYADSVKGRFTISRDNAKNTVYLQMYSLKPVDTAVYYCAATLNRYWFRLYYYLGQGTQVTVSS,high polyreactivity
3,QVQLVESGGGLVQAGGSLRLSCAASGSIFSINAMGWYRQAPGKERELVAVISWIGGNTYYADSVKGRFTISRDNAKNTVYLQMNSLKPEDTAVYYCAVATGPVSYRRYYWGQGTQVTVSS,high polyreactivity
4,QVHLVESGGGLVKAGGSLGLSCSPSGSTLSFNAMGWYRQAPGKERELVAGITYSGGSTYYADSVKGRFTISRDNAKNTFYLLMNSLKPEDTAVYYCNKASGVYYGHLDYWGQGTQVTVSS,low polyreactivity
5,QLQLVESGGGLVQAGGSLRLSSAASGSIFYEYTMGWYRQAPGKEREVVAVITSGGTTNYADSVKGRFTISRDNANNTDYLQMNSLKPEDTAFYYCNAVYRTSFQRGGGYWGQGTQVTVSS,high polyreactivity
6,QVQLVESGGGLVQAGGSLRLSCAASGSTFDDNDMGWYRQAPGKERELVAAISWSGGSTTYADSVKGRFTISRDYAKNTVYLQMNSLKPEDTAVYYCAADWYYWGFIFDYWGQGTQVTVSS,high polyreactivity
7,QVQLVESGGGIVQAGGSLRLSCAASGNIFSYKAMGWYRQAPRTERELVDAISRSGGSTYYADSVKGRFTISRDNAKNTVYLQMNSLKPEDTAVYYCAADWRGRKYDYWGQGTQVTVSS,high polyreactivity
8,QVHLVESGRGFVQAGGSLRLSCAASAFTFHSYAMGWYRQAPGKERELVASISSSGSTNYADSVKGRFTISRDNEKNTVYLQMISLKPEDTAVSYCAAESRYPFIYEYWGQVTQVTVSS,low polyreactivity
9,QVQLVESGGGLVQAGGSLHLSCAASGFTFDGYTMGWYRQAPGKERELVATITTGGSTYYADSVKGRFTISRDNAKNTVYLQMNSLKPEDTAVYYCAADYRGVPYIKWPKDFEYWGQGTQVTVSS,low polyreactivity
10,QVQLVESGGGLVQAGGSLRLSCAASGSTFTENAMGWYRQAPGKERELVATISTSDGSTHYADSVKGRFTISRDNAKNTVYLQMNSLKPEDTAVSYCAARPDYYLWHGYYTRRHYYWGQGTQVTVSS,low polyreactivity
11,QLQLVESGGVLVQAGGSLRLSCAASGRTFSEYLQGCYRPPPGKERELVAASTRGGGGTYYADSVKGRFTISRDNAKNTVYFQMNSLKPEDTAVYYCAAGRRGSAGYYRQFGYGYWGQGTQVTVSS,high polyreactivity
12,QVQLVESGGGLVQAGGSLRLSCAASGYTVTSNAMGWYRQAPGKERELVAAITNVGSTNYADSVKGRFTISRDNAKNTVYLQMNSLKPEDTAVYYCAADWDAVYLQTADYDYWGQGSQVTVSS,low polyreactivity
13,QVQLVESGGGLVQAGGSLRLSCAASGFIFYRKTMGWYRQAPGKERELDAAISVSGGSTNYADSVKGRFTISRDNAKNTVYLQMNSLKPEDTAVYYCAARVRDSLVYGGWDDYWGQGTQVTVSS,high polyreactivity
14,QVQLVESGGGLVQAGGSLRLSCAASGLIIDGYAMGWSRQAPGKERELVATITVSGTSTYYADSVKGRFTISRDNAKNTVYLQMNSLKPEDTAVYYCDTDRNYGYYFVEYDHDYWGQGTQVTVSS,low polyreactivity
15,QVQLVETGGGLVQAGGSLRLSCADSGSIYQKNAMGWYRQPPGKERELVAAITSGGTTYYADSVKGRFTISRDNAKNTVYLQMYSLKPEDTAVYYCAKYHCRLSFSRYPYDYWGQGTQVTVSS,high polyreactivity
16,QVQLVESGGGLVQAGGSLRLICAASGSTFGPYSMGWYRQAPGKEMELVAVITTSGSTNYADSVKGRFTISRDNAKNTVYLQMNSLKPEDTAVYYCAARYRYYGTNRYYYWGQGTQVTVSS,high polyreactivity
17,QVQLVESGGGLVQAGGSLRLSCAASGFTFYANAMGWYRQAPGKERELVAAISWSGGRTYYADSVKGRFTISRDNAKNTVYLQMNSLKPEDTAVYYCAAKRWTTKNGFYEYPYYYWGQGTQVTVSS,high polyreactivity
18,QVQLVESGGGLVQAGGSLRLSCTASGTIVPVYAMGWYRQAPGKERELVADITYTTGSTYYAVSVKGRFTISRENAKNSVYLQMNSLKPEDTAVYYCAKDFGFQSDSWGQGTQVTVSS,low polyreactivity
19,QVQIVESGGGLVQAGGSLRLSCAASGIIFYRYAMGWSRQAPGKERELVAAITWSGVSTSYADSVKGRFTISRDNAKNTVYLQMNSLKPEVTAVYDCNKDPGTLYGDMDSWGQGTQVSVSS,low polyreactivity
20,QVQLVDSGGGLVQAGGSLRLSCAASGRTIHGYAMGWYRQAPGKERELVAAINWRGGSTYYADSVKGRFTISRDNAKNTVYLQMNSLKPEDTAVYYCNKRQYSARVSRSYDYWGQGTQVTVSS,high polyreactivity
21,QVQLVESGGGLVQAGGSLRLSCAASGIIFVKYAMGWYRQAPGKERQLVAAITSGGSTYYADSVKGRFTISRDNAMYTVYLQMNSLKPEDTAVYYCNADSWFLYFFTINGYWGQGTQVTVSS,high polyreactivity
22,QVQLVESGGGLVQAGGSLRLSCAASGIFRRYAMGWYRQAPGKERELVATITSGGSTNYADSVKGRFTISRDNAKNTVYLQMNSLKPEDTAVYYCNALYGARRYTRWYTGMDYWGQGTQVTVSS,high polyreactivity

row,Sequence,polyreactivity (PSR sort gate)
1,QVQLVESGGGLVQAGGSLRLSCAASGRTFYRNAMGWYRQAPGKERELVATITRRGGSTYYADSVKGRFTISRDNAKNTVYLQMNSLKPEDTAVYYCAAGSKDLYRPYDYWGQGTQVTVSS,high polyreactivity
2,QVQLVESGGGLVQAGGSLRLSCAASGFTFYRNAMGWYRQAPGKERELVAAISRGGRTYYADSVKGRFTISRDNAKNTVYLQMNSLKPEDTAVYYCAVGYSGYGSSMDYWGQGTQVTVSS,high polyreactivity
3,QVQLVESGGGLVQAGGSLRLTCAASGSIFYRNAMGWYRQAPGKERELVAAISTDGSTNYADSVKGRFTISRDNAKNTVYLHMNSLIPEDTAVSYCAAPWTQILDYWGQGTQVTVSS,low polyreactivity
4,QVQLVESGGGLVQAGGSLRLSCPASGFTFRRYAMGWSRQQPGKESELDAAITRNGGSTYYADSVKGRFTISRDNAKNTVYLLINRLKPEDTAVYYCNAVLYTPVYDCFDSWGQGTQVTVSS,high polyreactivity
5,QVHLVESGGAIVQAGGSLRLSCAASGYIFDRNAMAWYRQAPGKERELVAAITKRGGITYYADSVKGRFTISRDNAKNTVYLQMNSLKAEDTAVYYCNALARSSRYDYWGKGTQVTVSS,low polyreactivity
6,QVQLVESGGGLVQAGGSLRLSCAASGLTFAYNTMGWYRQAPGKEREFVASISSSGGNTYYADSVKGRFTISRDNAKNTVYLQMNSLKPEDTAVYYCAAKKKYHYVASYKRFEYWGQVTQVTVSS,low polyreactivity
7,QVQLVESGGGLFHAGGSLRLICAASGTTFKYYAMGSYRQAPAIEREFVAAISTRTGNTYYADSVKGRFTISRDNAKNTVYLQMNSLKPEDTAVYYCAARPRQGRGYDFYYWGQGTQVTVSS,high polyreactivity
8,QLQLVESGGGLVQAGGSLRLSCAASGRTFSTYAMGWYRQAPGKEIELVAAISSGGGRTYYADSVKGRFTISRDNAKNTVYLQMNSLKQEDTAVYYCAADRYFRSRRSYEYWGQGTQVTVSS,low polyreactivity
9,QVQLVESGGGLVQAGGSLRLSCAASGSTLKYNAMGWYRQAPGKEREFVASITLSAGRTYYADSVKGRFTISRDNAKNTVYLQMNSLKPEDTAVYYCAARRYFSYRYDYWGQGTQVTVSS,high polyreactivity
10,QVQLVESGGGLVQAGGSLRLICAASGFTFPWNVMGWYRQAPGKERELVAAITYDGGGTYADSVKGRFTISRDNAKNTVYLQMNSLKPEDTAVYYCNADLIYGEEYDYWGQGTQVTVSS,low polyreactivity
11,QVHLVESGGGLVQAGGSLRLSCAASGSTNYYAMGRYRQAPGKEREFVSAISRDASSTYYADSVKGRFTISRDNAKNTVYLQMNSLKPEDTAVYYCAARIIRFSTSADKLVTSRYYYWGQGTQVTVSS,high polyreactivity
12,QVQLVESGGGLVHAGGSLRLSCAASGSTFSRNVMVWYRQAPGKEWELVAAISRGGSTNYADSVKGRFTISRENAKNTVYLQMKSLKPEDTAVYYCNAPRLGKFYNWGQGTQVTVSS,low polyreactivity
13,QVQLVESGGGLVQAGGSLRLSCAASGSTFTDYDMGWYRQAPGKERELVAAISSGGSTYYADSVKGRFTISRDNAKNTVYLQMNSLKPEDTAVYYCAAVLGVWGGVGSEGDYWGQGTQVTVSS,low polyreactivity
14,QVQLEESGGGLVQAGGSLRLSCAASGSTFGFYAMRWYRQAPGKERDLVAAISSAARTYYADSVKGRFTISRDNAKNTVYLQMNSLKPADTAVYYCSAEAYHWTSYIGYGGVYYWGQGTQVTGSS,low polyreactivity
15,QLQLVESGGGLVQAGGSLRLSCAASGYIFFKYAMGWYRQAPWKERELVASITSRGGTTYYADSVKGRFTISRDNAKNTVYLQMNSLKPEDTAVYYCAALRRSSFGYWGQGTQVTVSS,high polyreactivity
16,HFQLVEAGGGLVQAGGSLSLSCADSGRTYSHYAMGWYSQAPAQVRELVAGISSGSRTNYADSVKGRFTISRDNAKNTVYLQMNSLKPEDTAFYYCAARTNYLKGGYWGQGTQVTVSS,high polyreactivity
17,QVQLVESRGGLVQAGGSLRLSCDASGIIFVKYAMGWYRQAPGKERELVAAITSGGSTYYADSVKVRFTISRDNAKNTVYLQMNSLKPEDTAVYYCNADSWFLYYFTINGYWGQGTQVTVSS,high polyreactivity
18,QVQLVESGRGLVQAGGSLRLSCAASGRTFWYYAMGWYRQAPGKERELDARISSSGGSTYADSVKGRFTISRDNAKNTVYLHMNSLKPEDTAVYYCAADRHYWKADPSQGYQHYYWGQGTQVTVSS,high polyreactivity
19,QVQLVESGGGLVQAGGSLRLSCAASGRILRGNAMGGYRQAPGKERELVADINYSDGSTYYADSVKGRFTISRDNAKNTVYLQMNSLKPEDTAVYYCAKKNPLVFTSGMDYWGQGTQVTVSS,low polyreactivity
20,QVQLVESGGGLVQAGGSLRLSCAASGRIISRYTMGWSRQAPGKEREWVAGISRSGDRTYYADSVKGRFTISRDNAKNTVYLQMNSLKPEDTAVYSCNAGYWRFIDSYDYWGQGTQVTVSS,high polyreactivity
21,QVQLVESGGGLVQAGGSLRLSWAASGNTFNNNPMGWYRQAPGKERELVAAISGSGGSTYYADSVKGRFTISRDNAKNTVYLQLNSLKPEDTAGYYCAVRLVHGGKRYVYWGQGTQVTVSS,high polyreactivity
